{"source": "patent US20090175872A1", "about": "“Treatment of Conditions Involving Demyelination” (BIOGEN Idec MA Inc., priority 2005, published 2009)", "molecules": {"B1": {"name": "Sp35-Fc: extra-cellular portion of human Sp35 (residues 1-532) fused to the hinge and Fc region of human IgG1 (protein)", "chain": "TGCPPRCECSAQDRAVLCHRKRFVAVPEGIPTETRLLDLGKNRIKTLNQDEFASFPHLEELELNENIVSAVEPGAFNNLFNLRTLGLRSNRLKLIPLGVFTGLSNLTKLDISENKIVILLDYMFQDLYNLKSLEVGDNDLVYISHRAFSGLNSLEQLTLEKCNLTSIPTEALSHLHGLIVLRLRHLNINAIRDYSFKRLYRLKVLEISHWPYLDTMTPNCLYGLNLTSLSITHCNLTAVPYLAVRHLVYLRFLNLSYNPISTIEGSMLHELLRLQEIQLVGGQLAVVEPYAFRGLNYLRVLNVSGNQLTTLEESVFHSVGNLETLILDSNPLACDCRLLWVFRRRWRLNFNRQQPTCATPEFVQGKEFKDFPDVLLPNYFTCRRARIRDRKAQQVFVDEGHTVQFVCRADGDPPPAILWLSPRKHLVSAKSNGRLTVFPDGTLEVRYAQVQDNGTYLCIAANAGGNDSMPAHLHVRSYSPDWPHQPNKTFAFISNQPGE", "modifications": "left off: a dimerising Fc or GST", "notes": "extra-cellular portion of human Sp35 (residues 1-532) fused to the hinge and Fc region of human IgG1"}}, "key": {"A2B5+ oligodendrocytes": {"test_system": "A2B5+ oligodendrocytes", "experiment": "Differentiation of A2B5+ oligodendrocytes treated with Sp35-Fc (O4 staining)", "type": "cell-based, rat", "details": "increasing concentrations versus control-Fc, 48 h, FIG. 8", "experimental": "Enriched populations of oligodendrocytes were grown from female Long Evans P2 rats as described by Conn, Meth. Neurosci. 2:1-4 (Academic Press; 1990) with modifications as follows. Briefly, the forebrain was dissected and placed in Hank's buffered salt solution (IBSS; Invitrogen). The tissue was cut into 1-mm fragments and was incubated at 37° C. for 15 min in 0.01% trypsin and 10 μg/ml DNase. Dissociated cells were plated on poly-L-lysine-coated T75 tissue culture flasks and were grown at 37° C. for 10 d in DMEM medium with 20% fetal calf serum (Invitrogen). Oligodendrocyte precursors (A2B5^+) were collected by shaking the flask overnight at 200 rpm at 37° C., resulting in a 95% pure population. Cultures were maintained in high-glucose Dulbecco's modified Eagle's medium (DMEM with FGF/PDGF (10 ng/ml; Peprotech) for 1 week. Removal of FGF/PDGF allowed A2B5+ cells to differentiate into O4^+ premyelinating oligodendrocytes after 3-7 d, and to differentiate into O4^+ and MBP^+ mature oligodendrocytes after 7-10 d. These differentiation states are readily apparent from changes in morphology: AB5^+ cells are bipolar in shape, O4^+ premyelinating oligodendrocytes have longer and more branched processes and MBP^+ mature oligodendrocytes contain myelin sheet structures between processes. […]"}, "mature oligodendrocytes": {"test_system": "mature oligodendrocytes", "experiment": "Mature oligodendrocyte survival and MBP expression", "type": "cell-based, rat", "experimental": "Mature oligodendrocytes have a half-life in vitro of about 48 to 72 hours, with cells typically undergoing apoptosis after 72 hours. […] MBP expression was monitored as a marker for mature ologodendrocytes."}, "cuprizone-treated mice": {"test_system": "cuprizone-treated mice", "experiment": "Cuprizone demyelination model, stereotactic injection into corpus callosum", "type": "in vivo", "details": "injected at 2, 2.5 and 3 weeks of cuprizone feeding", "excerpt": "Adult wild-type C57B1/6 male mice were fed cuprizone (0.2% milled with ground mouse chow by weight) for 6 weeks to induce demyelination within the corpus callosum. Sp35-Fc was stereotactically injected into the demyelinating corpus callosum at 2, 2.5, and 3 weeks of cuprizone feeding. Control mice were stereotactically injected at the same intervals with sterilized media containing no Sp35-Fc. After 6 weeks of cuprizone feeding, the mice were returned to a normal diet for 2, 4 and 6 weeks (ground mouse chow only) to allow remyelination.\nThe cuprizone-treated mice were anesthetized with ketamine (80 mg/kg body weight) and xylazine (10 mg/kg body weight) and positioned in an immobilization apparatus designed for stereotactic surgery (David Kopf Instruments). The scalp was opened and the sterile compounds injected (1 μM in […] of HBSS) unilaterally into the acutely demyelinated corpus callosum of the wild-type recipient mice with a […] Hamilton syringe using stereotactic coordinates of 0.7 mm posterior and 0.3 mm lateral to bregrna at a depth of 1.7 mm (Messier et al., Pharmacol. Biochem. Behav. 63(2): 313-18 (1999)). Additionally, control recipient mice were stereotactically injected with HBSS containing no compounds. The opening in the skull was filled with Gelfoam, and the area was swabbed with penicillin and streptomycin (Gibco) and the wound was sutured. […]"}, "Caspase-3": {"test_system": "Caspase-3", "experiment": "Caspase-3 activation in differentiated PC12 cells after NGF withdrawal (Caspase 3/7 Glo)", "type": "cell-based", "details": "18 hours after removal of NGF", "experimental": "PC 12 cells (Neuroscreen) were differentiated in RPMI-1640 medium supplemented with 5% fetal bovine serum, 10% horse serum, 2 mM glutamine, 100 U/ml penicillin and […] streptomycin containing 200 ng/ml NGF for 7 days. For experiments, the culture media was replaced with NGF-free culture media containing Sp35-Fc, human IgG as a negative control (0.1-10 μM), or zVAD as a positive control (0.1 μM). 18 hours after NGF withdrawal, activated Caspase-3 was quantified using the Caspase 3/7 Glo kit (Promega) according to the manufacturer's instructions. 42 hours after NGF withdrawal, apoptotic cell death was quantified using a cell death detection ELISA kit (Roche) according to the manufacturer's instructions."}}}
{"molecule": "B1", "values": [{"measurement": "differentiation of A2B5+ cells into O4+ cells", "setting": "A2B5+ oligodendrocytes", "result": "promoted differentiation"}, {"measurement": "survival rate for mature oligodendrocytes", "setting": "mature oligodendrocytes; 10 μg/ml for 5 days, cell viability staining, versus control-Fc", "result": "significantly increased survival rate"}, {"measurement": "increase in MBP protein expression", "setting": "mature oligodendrocytes; cell staining and Western blot with anti-MBP antibody, versus control-Fc treated cells", "result": "approximately 3 fold"}, {"measurement": "axon myelination by IHC using anti-MBP protein antibody or luxol fast blue", "setting": "cuprizone-treated mice", "result": "increased"}, {"measurement": "mature oligodendrocyte survival (CC1 antibody staining)", "setting": "cuprizone-treated mice; FIG. 12", "result": "increased mature oligodendrocyte survival"}, {"measurement": "Caspase-3 activation", "setting": "Caspase-3; 0.1 μM", "result": "reduced Caspase-3 activation"}, {"measurement": "Caspase-3 activation compared with zVAD (0.1 μM)", "setting": "Caspase-3; 1 or 10 μM, dose-dependent, FIG. 14", "result": "as effective as a neuroprotective dose of the caspase inhibitor zVAD"}]}
